Data taken from US20200216495A1 (ADRX, published 2020).
Values joined by “and” are separate entries in the source; they are usually repeats but may differ in a detail not shown here. Equal entries are not always repeated. Square brackets hold non-standard residues; d marks the D form. Ends that are not written are not given here.

Target: Tau40 P301L protein (human)
Assay: cell-based or functional assay

IC50, Tau40 assay (ThT) | Binder
4.19 µM and 7.03 µM | [dF][dK][dL][dW][dL][dR][dW][dF] [fklwlrwf]
3.74 µM | [dF][dH][dL][dH][dL][dK][dH][dW] [fhlhlkhw]
5.86 µM | [dW][dR][dL][dK][dH][dR][dW] [wrlkhrw]
5.5 µM | [dW][dR][dH][dK][dV][dR][dW] [wrhkvrw]
4.03 µM | [dH][dR][dF][dK][dV][dQ][dL][dY] [hrfkvqly]
4.94 µM and 5.3 µM | [dF][dE][dL][dK][dL][dR][dW][dH] [felklrwh]
4.86 µM | [dW][dN][dL][dK][dV][dN][dW] [wnlkvnw]
3.59 µM | [dR][dI][dH][dY][dH][dI][dK][dL] [rihyhikl]
4.92 µM | [dK][dI][dR][dI][dH][dY][dH] [kirihyh]
5.25 µM | [dF][dR][dV][dK][dI][dE][dH][dW] [frvkiehw]
4.53 µM | [dL][dK][dI][dR][dI][dE][dH][dY] [lkiriehy]
3.62 µM | [dW][dL][dK][dI][dV][dW] [wlkivw]
3.64 µM | [dL][dK][dI][dE][dI][dH][dY][dH] [lkieihyh]
4.95 µM | [dL][dK][dI][dR][dI][dH] [lkirih]
4.69 µM | [dY][dR][dL][dK][dV][dR][dW] [yrlkvrw]
5.48 µM and 5.5 µM | [dW][dR][dL][dR][dV][dW] [wrlrvw]
3.71 µM and 4.76 µM | [dR][dL][dR][dV][dR][dW] [rlrvrw]
4.2 µM | [dF][dE][dI][dR][dL][dH][dH][dW] [feirlhhw]
5.12 µM | [dI][dH][dY][dH][dR][dI][dK][dL] [ihyhrikl]
5.51 µM | [dW][dL][dK][dV][dR][dW] [wlkvrw]
4.07 µM | [dL][dE][dI][dR][dI][dH][dY][dH] [leirihyh]
5.58 µM | [dE][dK][dI][dR][dI][dH][dY] [ekirihy]

IC50, Tau40 assay (ThT) | Binder
4.13 µM | [dW][dK][dL][dK][dL][dR][dW][dW] [wklklrww]
4.39 µM and 6.88 µM | [dF][dR][dL][dW][dI][dH][dW][dF] [frlwihwf]
5.38 µM and 8.72 µM | [dL][dE][dI][dK][dI][dR][dH][dW] [leikirhw]
5.03 µM | [dW][dH][dV][dR][dI][dR][dH][dV] [whvrirhv]
3.88 µM and 3.9 µM | [dF][dR][dI][dK][dL][dK][dW][dH] [friklkwh]
3.7 µM | [dR][dW][dK][dV][dR][dW] [rwkvrw]
4.59 µM | [dK][dI][dR][dI][dH][dY][dH][dL] [kirihyhl]
3.76 µM and 5.41 µM | [dW][dR][dL][dR][dI][dW][dW][dW] [wrlriwww]
3.77 µM and 7.09 µM | [dF][dR][dL][dR][dI][dH][dW][dF] [frlrihwf]
4.09 µM and 5.61 µM | [dW][dW][dL][dR][dI][dH][dW][dW] [wwlrihww]
3.98 µM | [dL][dA][dI][dR][dI][dH][dY] [lairihy]
3.84 µM | [dH][dK][dI][dR][dI][dH][dY][dH] [hkirihyh]
5.99 µM and 7.56 µM | [dW][dR][dL][dW][dI][dH][dW][dW] [wrlwihww]
5.89 µM and 9.68 µM | [dL][dR][dI][dE][dI][dE][dW][dH] [lrieiewh]
4.44 µM and 4.64 µM | [dL][dH][dI][dK][dL][dK][dH][dF] [lhiklkhf]
4.71 µM | [dY][dH][dV][dK][dF][dR][dH][dW] [yhvkfrhw]
5.62 µM | [dR][dL][dK][dW][dR][dW] [rlkwrw]
3.84 µM | [dK][dV][dR][dW][dW][dW][dR][dL] [kvrwwwrl]
5.13 µM | [dY][dR][dV][dR][dI][dQ][dH][dI] [yrvriqhi]
4.57 µM | [dL][dK][dI][dF][dI][dH][dY][dH] [lkifihyh]
5.92 µM and 5.99 µM | [dK][dL][dK][dL][dR][dW] [klklrw]
4.41 µM | [dK][dL][dK][dW][dL][dW] [klkwlw]
